Reference: patent publication US20190381150

Assays:
[1] = biological target: Bovine lactoferrin (lactoferrin from bovine milk, Sigma), P24627
[2] = biological target: Human lactoferrin (lactoferrin from human milk, Sigma), P02788
[3] = biological target: T1, Bovine ribonuclease B (ribonuclease B from bovine pancreas, Sigma-Aldrich), P61823
T1 chain: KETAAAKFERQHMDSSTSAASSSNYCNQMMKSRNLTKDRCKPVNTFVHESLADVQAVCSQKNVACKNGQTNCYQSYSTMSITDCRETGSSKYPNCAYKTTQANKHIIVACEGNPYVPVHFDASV

bovine fetuin, P12763 = biological target: T2, bovine fetuin, P12763
T2 chain: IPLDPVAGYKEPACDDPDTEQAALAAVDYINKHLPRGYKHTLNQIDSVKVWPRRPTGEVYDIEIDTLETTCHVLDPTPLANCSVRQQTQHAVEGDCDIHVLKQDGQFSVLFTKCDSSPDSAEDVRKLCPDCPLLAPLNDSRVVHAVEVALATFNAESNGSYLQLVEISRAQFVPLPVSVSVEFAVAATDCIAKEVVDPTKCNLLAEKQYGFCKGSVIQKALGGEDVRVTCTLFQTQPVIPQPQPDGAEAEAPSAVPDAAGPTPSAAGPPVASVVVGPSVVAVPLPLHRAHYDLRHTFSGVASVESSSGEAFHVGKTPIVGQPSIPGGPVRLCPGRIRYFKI

Bovine lactoferrin (lactoferrin from bovine milk, Sigma), P24627, sequence (P24627 20-708): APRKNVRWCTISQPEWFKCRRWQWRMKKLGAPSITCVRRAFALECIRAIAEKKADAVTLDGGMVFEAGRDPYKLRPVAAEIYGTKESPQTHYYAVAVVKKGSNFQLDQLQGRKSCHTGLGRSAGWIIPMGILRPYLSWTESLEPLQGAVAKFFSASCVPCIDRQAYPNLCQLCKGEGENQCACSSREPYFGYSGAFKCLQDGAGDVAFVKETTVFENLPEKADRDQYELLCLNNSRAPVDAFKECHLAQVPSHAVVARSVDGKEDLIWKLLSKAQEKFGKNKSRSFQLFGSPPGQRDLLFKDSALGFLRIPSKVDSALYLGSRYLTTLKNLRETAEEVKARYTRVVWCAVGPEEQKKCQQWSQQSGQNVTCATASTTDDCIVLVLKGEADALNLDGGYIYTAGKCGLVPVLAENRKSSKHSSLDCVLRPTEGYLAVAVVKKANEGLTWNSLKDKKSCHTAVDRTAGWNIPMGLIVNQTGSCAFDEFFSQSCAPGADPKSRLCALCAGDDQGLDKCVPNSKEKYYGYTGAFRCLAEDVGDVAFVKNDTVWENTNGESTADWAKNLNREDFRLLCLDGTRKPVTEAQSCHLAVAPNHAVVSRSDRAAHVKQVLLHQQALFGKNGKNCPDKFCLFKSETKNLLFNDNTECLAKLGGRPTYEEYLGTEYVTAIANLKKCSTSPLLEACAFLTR
Human lactoferrin (lactoferrin from human milk, Sigma), P02788, sequence (P02788 20-710): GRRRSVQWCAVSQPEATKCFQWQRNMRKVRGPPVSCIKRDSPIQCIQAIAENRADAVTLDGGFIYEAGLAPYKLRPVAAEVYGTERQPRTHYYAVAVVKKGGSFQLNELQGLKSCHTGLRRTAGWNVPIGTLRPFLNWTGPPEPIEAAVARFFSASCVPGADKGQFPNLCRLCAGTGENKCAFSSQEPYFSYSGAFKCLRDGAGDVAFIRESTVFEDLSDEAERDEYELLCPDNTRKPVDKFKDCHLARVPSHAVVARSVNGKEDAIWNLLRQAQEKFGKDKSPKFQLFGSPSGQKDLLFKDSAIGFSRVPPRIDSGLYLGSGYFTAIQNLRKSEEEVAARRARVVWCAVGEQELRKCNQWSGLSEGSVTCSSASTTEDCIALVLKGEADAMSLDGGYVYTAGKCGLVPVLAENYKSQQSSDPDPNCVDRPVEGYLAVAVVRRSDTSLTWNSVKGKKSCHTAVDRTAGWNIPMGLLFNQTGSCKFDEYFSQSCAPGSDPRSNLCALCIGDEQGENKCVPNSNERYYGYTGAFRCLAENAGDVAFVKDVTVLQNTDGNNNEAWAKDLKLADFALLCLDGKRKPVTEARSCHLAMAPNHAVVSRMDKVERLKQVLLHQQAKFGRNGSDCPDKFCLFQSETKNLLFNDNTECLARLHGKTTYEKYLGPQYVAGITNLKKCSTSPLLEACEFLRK

B1: EndoBB (GH85 endo-β-N-acetylglucosaminidase, BLD_0197 from B. longum DJO10A), recombinant, signal peptide and transmembrane domain omitted (protein)
chain: CSGGTSATKYTITPENENEELVLGNRPEASYWFPEDLLKWNADKDPNLAYNVSTVPLAKRVDKADLKPVNDTQNTDTKVMAISIMNSSTSGNAPHGLNTANANTFSYWQYVDELVYWGGSSGEGIIVPPSPDVTDMGHTNGVPVLGTVFFPQNVSGGKVEWLDQTLAQKSDGSFPVADKLIEVATTYGFDGWFINQETEGENETSLGADYATKMQAFIAYLKKQAPDLRVVYYDSMTKDGSIDWQNALTDENSMYMTDGDHPIADEMFLNFWWTEDKLAGDDLLAASATKAKELGIDPYSLYAGIDVQADGYDTPVKWNLFAGKDGKTHTSLGLYCPSWAYWSAGNPTTFRKNESRLWVNDEGNPSVSTPYEDDEKWTGVSNYVAEQSAVTSLPFVTNFNNGSGYSFFREGKQISKMDWNNRSVSDIQPTYRWIVADEGGNKTKADYSDADAWYGGSSLKFSGKVAKDGKTMVKLYSASVKTGAKPTLSIAAKANVDTDLKAVLTFADGSVETVNGKKKVGNDWGVIDYDIAKLSNKTLTGIDFTYQSSEDKTGYELLLGNITLKDGSEETELGKVTEVKVDDSEFDDDALYAGARISWKTDGKAPAYEIYQINEDKSRSFLGVSNVENFYANALTRVGETNNTTFEIVPVDRYGTQGTSAKADMDWPDNSKPKAGATASRTLLNVGDEVTFTSASSKNTAEVAWSLPGSSKEHATGKSVTVTYDKEGVYDVEITAKNKSGEATATLKGQIVVSADVMDLVLLSQGAQVSADGFTNGNEKPEFAVDGDVKTKWCVTGPAPHELVVDLGAPKTVSQVDISHAQAGGEDASMNTQEYAIEVSEDGTEYTQVALVKGNTEGATSNAFAPVNARYVKLVVNKPTQGSDTAARIYEMQVRGADGAIL
[1]
  deglycosylation (cleavage of high mannose glycans): cleaving RNAseB and bLF, but not hLF
  deglycosylation, change in MW on SDS-PAGE after overnight incubation: all of them were able to cleave bLF, as observed by discrete changes in MW on SDS-PAGE gels
[2]
  deglycosylation (cleavage of high mannose glycans): cleaving RNAseB and bLF, but not hLF
[3]
  deglycosylation (cleavage of high mannose glycans): cleaving RNAseB and bLF, but not hLF

B2: EndoBI-2 (endo-β-N-acetylglucosaminidase from B. infantis SC142), recombinant, signal peptide and transmembrane domains omitted (protein)
chain: VANAQEGDSPVAASQEGNGNKHFMVYYRAWRDVTMKGVNTDLPDDNWISMYDIPYGIDVVNVFSYVPSGQEAAAQPFYDKLKSDYAPYLHARGVKLVRGLDYSGVMVDGFKTWIAQQGKNVDSATESDYDAYADHVIETYMTSVGLDGLDIDMETFPDAAQVAISDQVITALAKRIGPKSDNPEGTMFLYDTNGSYTAPFKNVSDCFDYVAYQQYGSDSNRTAKAAATYEQFIDSTKFVPGLTFPEEGDMNNRWNDATEPYLDSHFYDVASYSYDHNLGGMFVYALDRDGRTYSDDDLAHIKPSNLIWTKTAIAQSQGMSLENAKQAANHFLDRMSYTKDVPAETRQTVAAATNLYEVNKAVLGADWNDGYSNTYDPTLELSLASIDTTALTGAIAKADALLADGATDTDVRTTLTTARNAA
[1]
  deglycosylation, change in MW on SDS-PAGE after overnight incubation: all of them were able to cleave bLF, as observed by discrete changes in MW on SDS-PAGE gels
[2]
  deglycosylation, SDS-PAGE after overnight incubation: EndoBI-1 and EndoBI-2 cleaved hLF

B3: EndoBI-1 (endo-β-N-acetylglucosaminidase from B. infantis ATCC 15697, Blon_2468), recombinant, signal peptide and transmembrane domains omitted (protein)
chain: NADAVSPTQETIQSTGRHFMVYYRAWRDVTMKGVNTDLPDDNWISMYDIPYGVDVVNIFSYVPSGQEEQAQPFYDKLKSDYAPYLHSRGIKLVRGIDYTGVAVNGFRTFMKEQNKTESEATEADYDAYAKQVIDKYMISVGLDGLDIDMEAHPNDADVKISDNVIRALSKHIGPKSAKPDTTMFLYDTNGSYLNPFKNVAECFDYVAYQQYGSSSDRTARAAADYQPYIGNEFVPGLTFPEEGDMNNRWYDATEPYEESHFYQVASYVREHNLGGMFVYALDRDGRNYDEDLRRIVPSNLLWTKTAIAESEGMALDTAKTAANHYLDRMSLRQVIDDNAASADKARDMVGKAANLYETNKAVLGGDYGEGFSNTYDPTLEAGLLGIDISVLQQQIDKSSEIIGADTAESDAKTALRMARDAAIDGLTGKIYTADQVSAWSQALKAALDATVPVPTPDSTDQNGNRDKVTNHKVQGQPKQLSAT
[1]
  deglycosylation, change in MW on SDS-PAGE after overnight incubation: all of them were able to cleave bLF, as observed by discrete changes in MW on SDS-PAGE gels
[2]
  deglycosylation, SDS-PAGE after overnight incubation: EndoBI-1 and EndoBI-2 cleaved hLF
  shift in molecular weight on SDS-PAGE of human milk after overnight incubation: produced a shift in the molecular weight of primarily lactoferrin
Bovine fetuin, P12763
  release of N-glycans: releasing N-glycans from human IgA, IgG, RNase B and bovine fetuin
